Results reported in article PMC3135652 (Journal of immunology (Baltimore, Md. : 1950), 2009).

Target: T1, Recombinant truncated p115 (p115 702-962), carboxy-terminal histidine tag (human, UniProt O60763 702-962)
T1 sequence (looked up): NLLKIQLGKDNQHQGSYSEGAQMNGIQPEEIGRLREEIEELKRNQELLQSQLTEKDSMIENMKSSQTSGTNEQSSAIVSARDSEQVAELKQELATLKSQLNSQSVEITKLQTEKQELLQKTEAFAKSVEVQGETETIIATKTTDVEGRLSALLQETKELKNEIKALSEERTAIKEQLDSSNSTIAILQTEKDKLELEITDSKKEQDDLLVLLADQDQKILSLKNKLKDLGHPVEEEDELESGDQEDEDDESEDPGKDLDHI
Test: ELISA

- binding result: binds
B1: Biotinylated recombinant human MIF (natural protein, UniProt P14174 1-115, looked up)
chain: MPMFIVNTNVPRASVPDGFLSELTQQLAQATGKPPQYIAVHVVPDQLMAFGGSSEPCALCSLHSIGKIGGAQNRSYSKLLCGLLAERLRISPDRVYINYYDMNAANVGWNNSTFA
modifications: biotin (Biotin Protein Labeling Kit, Roche)
